Laboratory results as given in publication PMC13354579 (EMBO Reports, 2026).

Biological target: T1, RAD23A^UBL (human, UniProt P54725 1-84)
T1 construct: RAD23A, human, N-terminal ubiquitin-like domain, residues 1-84; The limits 1-84 are stated for the crystallised construct; also called UBL domain of RAD23A; RAD23A (1–84); source: E. coli (Rosetta2(DE3) for crystallisation), purified via GST tag and SEC
T1 sequence (looked up): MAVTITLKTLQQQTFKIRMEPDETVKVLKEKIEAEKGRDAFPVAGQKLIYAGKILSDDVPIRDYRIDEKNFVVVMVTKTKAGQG
Experiment: ITC; MicroCal PEAQ-ITC, 25 °C, 50 mM Tris-HCl pH 7.5, 150 mM NaCl, 250 µM TCEP; DUB in the syringe titrated into K48-linked polyUb in the cell, in other experiments the scarcest species in the cell; n = 2, mean ± SD
Conditions: both partners purified

B1: MINDY3^EF-hand (domain or fragment, human, UniProt Q9H8M7 297-370, looked up)
chain: ALVAPEAPSEQARRVFQTYDPEDNGFIPDSLLEDVMKALDLVSDPEYINLMKNKLDPEGLGIILLGPFLQEFFP
notes: MINDY3, human, EF-hand domain, residues 297-370; The limits 297-370 are stated for the crystallised construct; also called EF-hand domain of MINDY3; MINDY3 (297–370); source: E. coli (Rosetta2(DE3) for crystallisation), purified via GST tag and SEC
  Kd: 3.5 µM
